Publication PMC5132341, “Malaria parasite CelTOS targets the inner leaflet of cell membranes for pore-dependent disruption” (eLife, 2016)

Tests used:
[1] = molecular target: Plasmodium vivax cell-traversal protein for ookinetes and sporozoites (PvCelTOS), amino acids 36-196 (Plasmodium vivax); assay: AUC; sedimentation equilibrium, 10°C, 150 mM NaCl, 10 mM HEPES pH 7.4, 12,000 and 15,000 rpm; PfCelTOS at 25, 36 and 46 µM, PvCelTOS at 29, 41 and 53 µM; single component model
[2] = molecular target: the molecule itself; assay: as above

Molecule | stoichiometry N [1] | stoichiometry N [2]
Plasmodium vivax cell-traversal protein for ookinetes and sporozoites (PvCelTOS), amino acids 36-196 (domain or fragment) | 2 | 
Plasmodium falciparum cell-traversal protein for ookinetes and sporozoites (PfCelTOS), amino acids 25-182 (domain or fragment, CelTOS of Plasmodium falciparum, UniProtKB Q8I5P1, amino acids 25-182, codon-optimized gene; No cleavage of the hexahistidine tag is described; the same preparation is detected with an anti-His antibody in the lipid strip assay, so the tag was probably kept; also called Antigen 2; source: E. coli, purified (Nickel-NTA chromatography, gel filtration on Superdex 200)) FRGNNGHNSSSSLYNGSQFIEQLNNSFTSAFLESQSMNKIGDDLAETISNELVSVLQKNSPTFLESSFDIKSEVKKHAKSMLKELIKVGLPSFENLVAENVKPPKVDPATYGIIVPVLTSLFNKVETAVGAKVSDEIWNYNSPDVSESEESLSDDFFD |  | 2
